Results as given in IntAct's records for PubMed 15895076.

B1: Dynamin-2 (Rattus norvegicus (Rat)), P39052 (parent)
chain: MGNRGMEELIPLVNKLQDAFSSIGQSCHLDLPQIAVVGGQSAGKSSVLENFVGRDFLPRGSGIVTRRPLILQLIFSKTEYAEFLHCKSKKFTDFDEVRQEIEAETDRVTGTNKGISPVPINLRVYSPHVLNLTLIDLPGITKVPVGDQPPDIEYQIKDMILQFISRESSLILAVTPANMDLANSDALKLAKEVDPQGLRTIGVITKLDLMDEGTDARDVLENKLLPLRRGYIGVVNRSQKDIEGRKDIRAALAAERKFFLSHPAYRHMADRMGTPHLQKTLNQQLTNHIRESLPTLRSKLQSQLLSLEKEVEEYKNFRPDDPTRKTKALLQMVQQFGVDFEKRIEGSGDQVDTLELSGGARINRIFHERFPFELVKMEFDEKDLRREISYAIKNIHGVRTGLFTPDLAFEAIVKKQVVKLKEPCLKCVDLVIQELISTVRQCTSKLSSYPRLREETERIVTTYIREREGRTKDQILLLIDIEQSYINTNHEDFIGFANAQQRSTQLNKKRAIPNQGEILVIRRGWLTINNISLMKGGSKEYWFVLTAESLSWYKDEEEKEKKYMLPLDNLKIRDVEKGFMSNKHVFAIFNTEQRNVYKDLRQIELACDSQEDVDSWKASFLRAGVYPEKDQAENEDGAQENTFSMDPQLERQVETIRNLVDSYVAIINKSIRDLMPKTIMHLMINNTKAFIHHELLAYLYSSADQSSLMEESAEQAQRRDDMLRMYHALKEALNIIGDISTSTVSTPVPPPVDDTWLQNTSSHSPTPQRRPVSSVHPPGRPPAVRGPTPGPPLIPMPVGATSSFSAPPIPSRPGPQNVFANNDPFSAPPQIPSRPARIPPGIPPGVPSRRAPAAPSRPTIIRPAEPSLLD
B2: Focal adhesion kinase 1 (Homo sapiens), Q05397 (parent)
chain: MAAAYLDPNLNHTPNSSTKTHLGTGMERSPGAMERVLKVFHYFESNSEPTTWASIIRHGDATDVRGIIQKIVDSHKVKHVACYGFRLSHLRSEEVHWLHVDMGVSSVREKYELAHPPEEWKYELRIRYLPKGFLNQFTEDKPTLNFFYQQVKSDYMLEIADQVDQEIALKLGCLEIRRSYWEMRGNALEKKSNYEVLEKDVGLKRFFPKSLLDSVKAKTLRKLIQQTFRQFANLNREESILKFFEILSPVYRFDKECFKCALGSSWIISVELAIGPEEGISYLTDKGCNPTHLADFTQVQTIQYSNSEDKDRKGMLQLKIAGAPEPLTVTAPSLTIAENMADLIDGYCRLVNGTSQSFIIRPQKEGERALPSIPKLANSEKQGMRTHAVSVSETDDYAEIIDEEDTYTMPSTRDYEIQRERIELGRCIGEGQFGDVHQGIYMSPENPALAVAIKTCKNCTSDSVREKFLQEALTMRQFDHPHIVKLIGVITENPVWIIMELCTLGELRSFLQVRKYSLDLASLILYAYQLSTALAYLESKRFVHRDIAARNVLVSSNDCVKLGDFGLSRYMEDSTYYKASKGKLPIKWMAPESINFRRFTSASDVWMFGVCMWEILMHGVKPFQGVKNNDVIGRIENGERLPMPPNCPPTLYSLMTKCWAYDPSRRPRFTELKAQLSTILEEEKAQQEERMRMESRRQATVSWDSGGSDEAPPKPSRPGYPSPRSSEGFYPSPQHMVQTNHYQVSGYPGSHGITAMAGSIYPGQASLLDQTDSWNHRPQEIAMWQPNVEDSTVLDLRGIGQVLPTHLMEERLIRQQQEMEEDQRWLEKEERFLKPDVRLSRGSIDREDGSLQGPIGNQHIYQPVGKPDPAAPPKKPPRPGAPGHLGSLASLSSPADSYNEGVKLQPQEISPPPTANLDRSNDKVYENVTGLVKAVIEMSSKIQPAPPEEYVPMVKEVGLALRTLLATVDETIPLLPASTHREIEMAQKLLNSDLGELINKMKLAQQYVMTSLQQEYKKQMLTAAHALAVDAKNLLDVIDQARLKMLGQTRPH
partner: B1 chain

Variants of: B1
Conditions: with fak1_mouse Ptk2, P34152

**Q.** K44E was tested. Which “effect of a mutation on the interaction” value did it give?
**A.** increasing interaction

Variants of: B2
Conditions: with dyn2_rat Dnm2, P39052

**Q.** Which “effect of a mutation on the interaction” value does the source give for Y925F here?
**A.** disrupting interaction
